The source of these data is the supplement of paper PMC9112550, “Optimization of the antimicrobial peptide Bac7 by deep mutational scanning” (BMC Biology, 2022).

This data set has as its system Escherichia coli TOP10. Description: shrunken log2 fold change of peptide-encoding DNA abundance (4.5 h post-induction vs induction); higher = less antimicrobial activity (less host growth inhibition). Particulars: time post-induction: 4.5 h; library: site-saturation at positions 5, 18, 19, 20.
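Also: peptides expressed intracellularly from a pBAD plasmid library in pooled LB shake-flask culture, induced with 0.3% L-arabinose, DNA abundance read by NGS, three biological replicates, DESeq2 with apeglm shrinkage.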

For the sequence RRIRARPPRLPRPRPRPCDTPRP, the “shrunken log2 fold change” value worked out at 0.255.

On to RRIRRRPPRLPRPRPRPWPHPRP, for which the “shrunken log2 fold change” value is -0.0473.

On to RRIRMRPPRLPRPRPRPTSDPRP, for which the “shrunken log2 fold change” value turned out to be 0.055.

Take RRIRFRPPRLPRPRPRPGRSPRP: the “shrunken log2 fold change” value was 0.183.

Regarding RRIRRRPPRLPRPRPRPWTWPRP, the “shrunken log2 fold change” value was -0.008.

As for RRIRIRPPRLPRPRPRPQEPPRP, the “shrunken log2 fold change” value is -0.04.

As for RRIRWRPPRLPRPRPRPICKPRP, the “shrunken log2 fold change” value was -0.0506.

Regarding RRIRTRPPRLPRPRPRPKLYPRP, the “shrunken log2 fold change” value is -0.363.

In the case of RRIRARPPRLPRPRPRPCQIPRP, the “shrunken log2 fold change” value was -0.486.

Consider RRIRRRPPRLPRPRPRPWYNPRP, for which the “shrunken log2 fold change” value is -0.468.

As to RRIRSRPPRLPRPRPRPAVGPRP, the “shrunken log2 fold change” value is 0.391.

For the sequence RRIRKRPPRLPRPRPRPQRRPRP, the “shrunken log2 fold change” value amounted to 0.734.

In the case of RRIRYRPPRLPRPRPRPCHTPRP, the “shrunken log2 fold change” value is -0.141.

As for RRIRFRPPRLPRPRPRPYHIPRP, the “shrunken log2 fold change” value is -0.081.

Regarding RRIRFRPPRLPRPRPRPRVSPRP, the “shrunken log2 fold change” value was -0.102.

For the sequence RRIRLRPPRLPRPRPRPFPPPRP, the “shrunken log2 fold change” value is 0.00271.

As for RRIRCRPPRLPRPRPRPARMPRP, the “shrunken log2 fold change” value is 0.264.

With RRIRVRPPRLPRPRPRPHHVPRP, the “shrunken log2 fold change” value was -0.261.

For RRIRPRPPRLPRPRPRPYHVPRP, the “shrunken log2 fold change” value was -0.199.

As to RRIRYRPPRLPRPRPRPMHSPRP, the “shrunken log2 fold change” value was -1.02.

Take RRIRIRPPRLPRPRPRPRHHPRP: the “shrunken log2 fold change” value is -0.408.

As for RRIRQRPPRLPRPRPRPDDNPRP, the “shrunken log2 fold change” value was 0.0317.

Regarding RRIRVRPPRLPRPRPRPFYNPRP, the “shrunken log2 fold change” value is -0.565.

With RRIRDRPPRLPRPRPRPKKEPRP, the “shrunken log2 fold change” value is 0.0609.

RRIRERPPRLPRPRPRPGISPRP: the “shrunken log2 fold change” value was -0.017.

Regarding RRIRWRPPRLPRPRPRPNARPRP, the “shrunken log2 fold change” value came to 0.0903.

On to RRIRFRPPRLPRPRPRPFEWPRP, for which the “shrunken log2 fold change” value is -0.0458.

Take RRIRERPPRLPRPRPRPIWFPRP: the “shrunken log2 fold change” value stood at 0.0591.

Consider RRIRDRPPRLPRPRPRPLGIPRP, for which the “shrunken log2 fold change” value was found to be 0.143.

Take RRIRGRPPRLPRPRPRPPHKPRP: the “shrunken log2 fold change” value is 0.858.

RRIRMRPPRLPRPRPRPIWLPRP: the “shrunken log2 fold change” value stood at 0.0637.

Take RRIRNRPPRLPRPRPRPEVFPRP: the “shrunken log2 fold change” value stood at 0.0362.

As for RRIRRRPPRLPRPRPRPTKDPRP, the “shrunken log2 fold change” value came out at 0.209.

Turning to RRIRARPPRLPRPRPRPNAHPRP, the “shrunken log2 fold change” value was 0.437.

RRIRVRPPRLPRPRPRPEEPPRP: the “shrunken log2 fold change” value worked out at 0.0911.

On to RRIRCRPPRLPRPRPRPAHCPRP, for which the “shrunken log2 fold change” value was 1.77.

Take RRIRKRPPRLPRPRPRPWRNPRP: the “shrunken log2 fold change” value was -0.0406.

As for RRIRRRPPRLPRPRPRPHQYPRP, the “shrunken log2 fold change” value was 2.56.
